pKd: −log10 of the molar value.
Key:
[1] = target: HA of A/New Caledonia/20/1999 (influenza A virus A/New Caledonia/20/1999) (UniProt Q6WG00)
[2] = target: HA of A/mallard/Alberta/35/1976 (influenza A virus A/mallard/Alberta/35/1976); assay: BLI

C05 WT (antibody) gave an HAI, antibody concentration at the endpoint titer; virus A/New Caledonia/20/1999 [1] of 0.2 µg/mL, a pKd [2] of 6.29 and a koff [2] of 0.0021 s⁻¹. The kon [2] was 4100 M⁻¹ s⁻¹.

From publication PMC6358683
